These results are taken from US20110318356A1 (Novo Nordisk, published 2011).

Residue numbers refer to the chain shown, from its start. Names may count otherwise.

For orientation: Kd means a measure of binding affinity in units of concentration. A word on the kon: it is the rate constant with which the complex forms.

The chains are these.
B1: MuTFPI4F36 (TFPI-4F36A1B2) murine monoclonal antibody (antibody, mouse IgG1, kappa, V domains shown)
VH: EVELVESGGGLVKPGGSLKLSCAASGFTFSNYAMSWVRQTPEKRLEWVATISRSGSYSYFPDSVQGRFTISRDNAKNTLYLQMSSLRSEDTAMYYCTRLGGYDEGDAMDSWGQGTSVTVSS
VL: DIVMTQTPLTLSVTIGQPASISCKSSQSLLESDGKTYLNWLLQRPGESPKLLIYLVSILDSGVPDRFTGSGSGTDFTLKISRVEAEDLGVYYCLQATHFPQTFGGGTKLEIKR
notes: murine kappa / IgG1; also called anti-TFPI4F36A1B2; Murine TFPI4F36
B2: HzTFPI4F36-CDRgrafted (initial CDR grafted version of humanized TFPI4F36) (antibody, human IgG4 S228P, kappa)
heavy: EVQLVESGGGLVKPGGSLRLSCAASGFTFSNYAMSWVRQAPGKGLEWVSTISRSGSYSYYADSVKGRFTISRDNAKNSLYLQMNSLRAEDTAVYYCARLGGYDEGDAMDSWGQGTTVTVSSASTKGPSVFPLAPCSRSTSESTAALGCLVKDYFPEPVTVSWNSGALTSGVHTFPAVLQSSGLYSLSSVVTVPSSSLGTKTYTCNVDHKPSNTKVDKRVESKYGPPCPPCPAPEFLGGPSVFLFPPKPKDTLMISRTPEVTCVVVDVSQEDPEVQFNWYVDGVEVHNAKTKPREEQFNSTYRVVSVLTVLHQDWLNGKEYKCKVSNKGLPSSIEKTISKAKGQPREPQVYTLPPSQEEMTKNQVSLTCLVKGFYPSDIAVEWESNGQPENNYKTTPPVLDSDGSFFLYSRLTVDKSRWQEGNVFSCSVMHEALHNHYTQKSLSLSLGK
light: DIVMTQTPLSLSVTPGQPASISCKSSQSLLESDGKTYLNWYLQKPGQSPQLLIYLVSILDSGVPDRFSGSGSGTDFTLKISRVEAEDVGVYYCLQATHFPQTFGGGTKVEIKRTVAAPSVFIFPPSDEQLKSGTASVVCLLNNFYPREAKVQWKVDNALQSGNSQESVTEQDSKDSTYSLSSTLTLSKADYEKHKVYACEVTHQGLSSPVTKSFNRGEC
notes: human kappa/IgG4(S241P); also called hz4F36CDRgraft
B3: HzTFPI4F36 HC-G42E, G44R, CDR2 (antibody, human IgG4 S228P, kappa, name in Kabat numbering, V domains shown)
VH: B1 VH with E3Q, K19R, T40A, A49S, T78S, S84N, S88A, M93V, T97A, S116T
VL: DIVMTQTPLSLSVTPGQPASISCKSSQSLLESDGKTYLNWYLQKPGQSPQLLIYLVSILDSGVPDRFSGSGSGTDFTLKISRVEAEDVGVYYCLQATHFPQTFGGGTKVEIKR
notes: Mutated CDR-grafted heavy chain with wild type CDR-grafted light chain; Kabat numbering; also called HzTFPI4F36 G42E, G44R, Y59F, A60P, K64Q
B4: HzTFPI4F36 HC-G42E, G44R, A60P, K64Q (antibody, human IgG4 S228P, kappa, name in Kabat numbering, V domains shown)
VH: EVQLVESGGGLVKPGGSLRLSCAASGFTFSNYAMSWVRQAPEKRLEWVSTISRSGSYSYYPDSVQGRFTISRDNAKNSLYLQMNSLRAEDTAVYYCARLGGYDEGDAMDSWGQGTTVTVSS
VL: B3 VL
notes: Mutated CDR-grafted heavy chain with wild type CDR-grafted light chain; Kabat numbering; also called HzTFPI4F36 G42E, G44R, A60P, K64Q
B5: HzTFPI4F36 LC-P15I, FR2 (antibody, human IgG4 S228P, kappa, name in Kabat numbering)
heavy: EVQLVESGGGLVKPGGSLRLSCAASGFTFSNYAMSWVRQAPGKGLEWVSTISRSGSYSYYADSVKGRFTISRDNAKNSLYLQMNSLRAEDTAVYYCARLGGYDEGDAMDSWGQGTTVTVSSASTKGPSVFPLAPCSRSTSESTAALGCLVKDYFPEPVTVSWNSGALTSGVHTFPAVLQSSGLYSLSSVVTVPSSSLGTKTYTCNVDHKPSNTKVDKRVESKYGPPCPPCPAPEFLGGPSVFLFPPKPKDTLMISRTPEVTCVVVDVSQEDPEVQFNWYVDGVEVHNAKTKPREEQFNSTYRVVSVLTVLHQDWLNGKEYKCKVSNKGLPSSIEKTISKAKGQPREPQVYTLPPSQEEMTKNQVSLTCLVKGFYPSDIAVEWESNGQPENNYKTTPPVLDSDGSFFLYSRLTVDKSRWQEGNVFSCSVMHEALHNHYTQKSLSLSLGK
light: B2 light with P15I, Y41L, K44R, Q47E, Q50K
notes: Mutated CDR-grafted light chain with wild type CDR-grafted heavy chain; Kabat numbering
B6: HzTFPI4F36 LC-S63T (antibody, human IgG4 S228P, kappa, name in Kabat numbering, V domains shown)
VH: B4 VH with E42G, R44G, P61A, Q65K
VL: B3 VL with S68T
notes: Mutated CDR-grafted light chain with wild type CDR-grafted heavy chain; human kappa/IgG4(S241P)
B7: HzTFPI4F36 LC-FR2 (antibody, human IgG4 S228P, kappa, name in Kabat numbering)
heavy: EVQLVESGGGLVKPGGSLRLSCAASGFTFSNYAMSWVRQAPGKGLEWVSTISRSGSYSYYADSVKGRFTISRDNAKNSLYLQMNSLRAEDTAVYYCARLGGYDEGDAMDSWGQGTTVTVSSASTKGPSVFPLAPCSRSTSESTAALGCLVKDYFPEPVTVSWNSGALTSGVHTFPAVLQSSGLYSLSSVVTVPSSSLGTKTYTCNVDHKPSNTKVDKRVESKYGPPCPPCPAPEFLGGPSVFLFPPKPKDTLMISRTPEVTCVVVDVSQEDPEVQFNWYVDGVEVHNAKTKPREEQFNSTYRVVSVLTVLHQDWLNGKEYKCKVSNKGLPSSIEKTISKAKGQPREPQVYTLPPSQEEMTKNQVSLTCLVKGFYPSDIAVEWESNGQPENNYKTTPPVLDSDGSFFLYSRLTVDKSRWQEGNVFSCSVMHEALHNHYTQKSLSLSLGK
light: B2 light with Y41L, K44R, Q47E, Q50K
notes: Mutated CDR-grafted light chain with wild type CDR-grafted heavy chain; Kabat numbering; also called patch mutant in LC FR2
B8: HzTFPI4F36 LC-Y36L (antibody, human IgG4 S228P, kappa, name in Kabat numbering, V domains shown)
VH: B4 VH with E42G, R44G, P61A, Q65K
VL: B3 VL with Y41L
notes: as for B5
B9: HzTFPI4F36 LC-P15I (antibody, human IgG4 S228P, kappa, name in Kabat numbering)
heavy: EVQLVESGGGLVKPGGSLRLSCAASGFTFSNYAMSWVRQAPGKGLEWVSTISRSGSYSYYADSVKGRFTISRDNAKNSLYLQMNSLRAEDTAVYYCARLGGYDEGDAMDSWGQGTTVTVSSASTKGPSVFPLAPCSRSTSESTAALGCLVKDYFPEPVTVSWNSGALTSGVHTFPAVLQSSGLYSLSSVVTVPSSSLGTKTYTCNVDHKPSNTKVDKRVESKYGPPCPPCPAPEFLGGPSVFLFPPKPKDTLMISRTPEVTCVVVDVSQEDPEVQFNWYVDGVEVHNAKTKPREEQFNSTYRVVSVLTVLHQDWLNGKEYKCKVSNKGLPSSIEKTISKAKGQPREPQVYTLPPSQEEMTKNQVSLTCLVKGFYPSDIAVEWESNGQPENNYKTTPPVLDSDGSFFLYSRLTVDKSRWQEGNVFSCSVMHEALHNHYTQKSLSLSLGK
light: B2 light with P15I
notes: as for B5
B10: HzTFPI4F36 LC-K39R, Q42E, Q45K (antibody, human IgG4 S228P, kappa, name in Kabat numbering, V domains shown)
VH: B4 VH with E42G, R44G, P61A, Q65K
VL: B3 VL with K44R, Q47E, Q50K
notes: as for B5
B11: HzTFPI4F36 HC-A60P (antibody, human IgG4 S228P, kappa, name in Kabat numbering, V domains shown)
VH: B4 VH with E42G, R44G, Q65K
VL: B3 VL
notes: Mutated CDR-grafted heavy chain with wild type CDR-grafted light chain; Kabat numbering
B12: HzTFPI4F36 HC-S49A (antibody, human IgG4 S228P, kappa, name in Kabat numbering, V domains shown)
VH: B4 VH with E42G, R44G, S49A, P61A, Q65K
VL: B3 VL
notes: as for B11
B13: HzTFPI4F36 HC-FR2, CDR2 (antibody, human IgG4 S228P, kappa, name in Kabat numbering, V domains shown)
VH: B4 VH with A40T, Y60F
VL: B3 VL
notes: as for B11
B14: HzTFPI4F36 HC-FR3, S77T (antibody, human IgG4 S228P, kappa, name in Kabat numbering, V domains shown)
VH: B4 VH with E42G, R44G, P61A, Q65K, S78T, N84S, A88S, V93M
VL: B3 VL
notes: as for B11
B15: HzTFPI4F36 HC-K64Q (antibody, human IgG4 S228P, kappa, name in Kabat numbering, V domains shown)
VH: B4 VH with E42G, R44G, P61A
VL: B3 VL
notes: as for B11
B16: HzTFPI4F36 HC-Q3E (antibody, human IgG4 S228P, kappa, name in Kabat numbering)
heavy: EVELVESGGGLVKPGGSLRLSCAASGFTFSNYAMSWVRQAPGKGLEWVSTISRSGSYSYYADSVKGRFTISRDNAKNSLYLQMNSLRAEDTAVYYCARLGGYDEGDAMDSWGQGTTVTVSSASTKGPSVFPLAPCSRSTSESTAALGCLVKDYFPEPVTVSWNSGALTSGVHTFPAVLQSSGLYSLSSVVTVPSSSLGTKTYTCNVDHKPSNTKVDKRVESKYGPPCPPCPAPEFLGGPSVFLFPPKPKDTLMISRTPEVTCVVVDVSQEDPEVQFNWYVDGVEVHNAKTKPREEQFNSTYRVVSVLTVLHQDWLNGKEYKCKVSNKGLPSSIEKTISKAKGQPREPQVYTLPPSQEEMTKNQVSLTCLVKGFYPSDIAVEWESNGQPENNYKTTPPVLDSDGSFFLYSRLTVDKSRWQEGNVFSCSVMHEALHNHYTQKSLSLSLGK
light: B2 light
notes: Mutated CDR-grafted heavy chain with wild type CDR-grafted light chain; human kappa/IgG4(S241P)
B17: HzTFPI4F36 HC-G42E, G44R, S49A CDR2 (antibody, human IgG4 S228P, kappa, name in Kabat numbering, V domains shown)
VH: B4 VH with S49A, Y60F
VL: B3 VL
notes: as for B11
B18: HzTFPI4F36 HC-S77T (antibody, human IgG4 S228P, kappa, name in Kabat numbering, V domains shown)
VH: B4 VH with E42G, R44G, P61A, Q65K, S78T
VL: B3 VL
notes: as for B11
B19: HzTFPI4F36 HC-KABAT CDR2 (antibody, human IgG4 S228P, kappa, name in Kabat numbering, V domains shown)
VH: B4 VH with E42G, R44G, Y60F
VL: B3 VL
notes: as for B11
B20: HzTFPI4F36 HC-Y59F (antibody, human IgG4 S228P, kappa, name in Kabat numbering, V domains shown)
VH: B4 VH with E42G, R44G, Y60F, P61A, Q65K
VL: B3 VL
notes: as for B11
B21: HzTFPI4F36 HC-G44R, A60P, K64Q (antibody, human IgG4 S228P, kappa, name in Kabat numbering, V domains shown)
VH: B4 VH with E42G
VL: B3 VL
notes: as for B11
B22: HzTFPI4F36 HC-FR3 (antibody, human IgG4 S228P, kappa, name in Kabat numbering, V domains shown)
VH: B4 VH with E42G, R44G, P61A, Q65K, N84S, A88S, V93M
VL: B3 VL
notes: as for B11
B23: HzTFPI4F36 HC-Y59F, A60P (antibody, human IgG4 S228P, kappa, name in Kabat numbering, V domains shown)
VH: B4 VH with E42G, R44G, Y60F, Q65K
VL: B3 VL
notes: as for B11
B24: HzTFPI4F36 HC-A93T (antibody, human IgG4 S228P, kappa, name in Kabat numbering, V domains shown)
VH: B4 VH with E42G, R44G, P61A, Q65K, A97T
VL: B3 VL
notes: as for B11
B25: HzTFPI4F36 HC-FR3, A93T (antibody, human IgG4 S228P, kappa, name in Kabat numbering, V domains shown)
VH: B4 VH with E42G, R44G, P61A, Q65K, N84S, A88S, V93M, A97T
VL: B3 VL
notes: as for B11
B26: HzTFPI4F36 HC-FR2, S49A (antibody, human IgG4 S228P, kappa, name in Kabat numbering, V domains shown)
VH: B4 VH with A40T, S49A, P61A, Q65K
VL: B3 VL
notes: as for B11
B27: HzTFPI4F36 HC-FR2 (antibody, human IgG4 S228P, kappa, name in Kabat numbering, V domains shown)
VH: B4 VH with A40T, P61A, Q65K
VL: B3 VL
notes: Mutated CDR-grafted heavy chain with wild type CDR-grafted light chain; Kabat numbering; also called patch mutant in HC FR2
B28: HzTFPI4F36 HC-G44R (antibody, human IgG4 S228P, kappa, name in Kabat numbering, V domains shown)
VH: B4 VH with E42G, P61A, Q65K
VL: B3 VL
notes: as for B11
B29: mouse/human chimera version of the anti-TFPI4F36 antibody (ChimTFPI4F36) (antibody, IgG4, V domains shown)
VH: B1 VH
VL: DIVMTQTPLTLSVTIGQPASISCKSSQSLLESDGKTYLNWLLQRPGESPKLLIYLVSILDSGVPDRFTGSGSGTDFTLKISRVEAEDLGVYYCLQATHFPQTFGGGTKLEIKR
notes: also called Chimeric TFPI4F36; chimeric anti-TFPI4F36

The target of one experiment is T1, recombinant full length human tissue factor pathway inhibitor (TFPI) (human, UniProt P10646 29-304).
T1 construct: also called TFPI1; human TFPI
As to the kind of experiment: SPR (Biacore). For orientation: SPR reads the build-up and loss of mass on a sensor chip optically.
Source text: The affinity analyses were done using SRP as described below.
(§1) These were followed by a direct binding kinetic procedure on selected mAb constructs, with the monoclonal antibody covalently coupled via free amine groups to the carboxymethylated dextrane membrane (CM5) on the sensor chip surface.
As for B1, the dissociation constant (Kd) was ~0.03 nM.

On to B2, for which the “fold lower affinity than the original mouse TFPI4F36 antibody” value was ≥ 100 fold.

A further experiment deals with T1, recombinant full length human tissue …. Kind of experiment: SPR (Biacore), TFPI.
Turning to B3, the dissociation constant (Kd) worked out at 0.039 nM.

Take B4: the Kd turned out to be 0.093 nM.

The next experiment has the same target. As to the kind of experiment: SPR (Biacore), recombinant human TFPI.
For B5, the Kd was 0.64 nM.

With B6, the dissociation constant (Kd) was determined as 7.8 nM.

For B7, the dissociation constant (Kd) was 0.63 nM.

For B8, the Kd was > 0.03 nM.

In the case of B9, the equilibrium dissociation constant (Kd) came to 17 nM.

With B10, the equilibrium dissociation constant (Kd) was > 0.03 nM.

For a further experiment the target is unchanged. As to the kind of experiment: SPR (Biacore), recombinant human TFPI. This is another data set of the same source.
For B11, the Kd stood at 2.2 nM.

For B12, the Kd came to 3 nM.

Consider B13, for which the Kd is > 0.03 nM.

As for B14, the Kd came out at 7.7 nM.

With B15, the Kd is 2.5 nM.

As for B16, the dissociation constant Kd came to 5.8 nM.

Turning to B17, the equilibrium dissociation constant (Kd) is > 0.03 nM.

With B18, the equilibrium dissociation constant (Kd) amounted to 1.5 nM.

For the molecule B19, the dissociation constant Kd was 0.9 nM.

Consider B20, for which the Kd was 5.5 nM.

Regarding B21, the Kd was found to be 0.03 nM.

Consider B22, for which the dissociation constant (Kd) was determined as 5.3 nM.

As to B23, the Kd is 2.3 nM.

For B24, the Kd turned out to be 2.7 nM.

Consider B25, for which the dissociation constant Kd turned out to be 4.1 nM.

Consider B26, for which the Kd was found to be 1.3 nM.

In the case of B27, the equilibrium dissociation constant (Kd) worked out at 0.88 nM.

For B3, the Kd stood at 0.039 nM.

B4: the Kd amounted to 0.093 nM.

Regarding B28, the Kd was found to be 2.3 nM.

For another experiment the target is unchanged. As to the kind of experiment: SPR (Biacore), recombinant human TFPI over the mAb.
Procedure: Binding interaction analysis was obtained by Surface Plasmon Resonance in a Biacore 3000. Capture of the relevant monoclonal antibody at a fixed concentration was obtained with immobilised mouse anti-IgG. Different concentrations of TFPI were tested.
as §1
Regarding B1, the Kd was 0.0282 nM and the on-rate constant (kon) was determined as 4.7e+06 M⁻¹ s⁻¹.

B29: the Kd was 0.0162 nM and the kon was found to be 8.88e+06 M⁻¹ s⁻¹.

B2: the Kd came out at 2.06 nM and the on-rate (kon) worked out at 1.07e+06 M⁻¹ s⁻¹.
